Assay results published in patent US6835814 (Eli Lilly, dated 2004).

B1: FasLigand (monomer) (ligand, UniProt P48023 103-281, looked up)
chain: QLFHLQKELAELRESTSQMHTASSLEKQIGHPSPPPEKKELRKVAHLTGKSNSRSMPLEWEDTYGIVLLSGVKYKKGGLVINETGLYFVYSKVYFRGQSCNNLPLSHKVYMRNSKYPQDLVMMEGKMMSYCTTGQMWARSSYLGAVFNLTSADHLYVNVSELSLVNFEESQTFFGLYKL
notes: Immobilized on a CM5 chip by amine coupling and printed as 'FasLigand (monomer)'; also called Fas Ligand (Kamiya Biomedical Company)

Assays:
[1] = biological target: T1, FLINT (FAS Ligand Inhibitory Protein), mature human FLINT (human, UniProt O95407 30-300); test: SPR (Biacore 2000), FasLigand immobilized on CM5 chip, FLINT in solution
T1 construct: also called mature FLINT
T1 sequence: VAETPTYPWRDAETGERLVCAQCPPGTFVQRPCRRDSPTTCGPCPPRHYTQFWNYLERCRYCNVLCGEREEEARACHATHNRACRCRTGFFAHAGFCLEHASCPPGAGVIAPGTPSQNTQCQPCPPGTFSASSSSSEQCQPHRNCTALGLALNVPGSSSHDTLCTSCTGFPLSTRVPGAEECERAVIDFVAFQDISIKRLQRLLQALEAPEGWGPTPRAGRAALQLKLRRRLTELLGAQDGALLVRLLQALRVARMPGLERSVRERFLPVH
Protocol: (§1) FasL or the FLINT analog are immobilized through their primary amine group on lysine residues onto carboxymethyldextran polymer attached to a gold surface (Sensor Chip CM5). Immobilization is carried out using the amine coupling kit (Biacore) according to the manufacturer's protocol. Briefly, 100 µl of either FasL or FLINT analog solutions (10–25 µg/ml in sodium acetate buffer 20 mM, pH 5.0) is loaded onto an activated CM5 chip. After coupling, excess reactive groups on the surface are deactivated with 1M ethanolamine hydrochloride pH 8.5. The chip is then washed with a sodium acetate buffer 20 mM, pH 5.0 to remove non-covalently bound material.
(§2) To analyze the interaction between FasL and FLINT analogs, solutions containing the FLINT analogs are passed over the chip with PasL immobilized thereon. The amount of the FLINT analog associated with FasL is determined by measuring the surface plasmon resonance signal (in responce units, RU). Typically, FLINT analog solutions at different concentrations in HBS-ET buffer are loaded on the sensor chip for 10 minutes at a flow rate of 5 µl/min. […]
(§3) The data is evaluated and binding parameters determined using BIA evaluation 3.0.2 software (Biacore). The Kd for the interaction between FLINT and FasL and between FasL and Fas was determined using the protocols described above.

FasLigand (monomer) = biological target: B1; test: SPR (Biacore 2000), FasLigand immobilized on CM5 chip, Fas in solution
Protocol: as §1, §2, §3

How did the Kd [1] turn out when B1 was run?
The Kd was 113 nM.

B2: Fas/Fc chimera (R&D Systems) (Fc fusion, UniProt P25445 26-173, looked up)
chain: QVTDINSKGLELRKTVTTVETQNLEGLHHDGQFCHKPCPPGERKARDCTVNGDEPDCVPCQEGKEYTDKAHFSSKCRRCRLCDEGHGLEVEINCTRTQNTKCRCKPNFFCNSTVCEHCDPCTKCEHGIIKECTLTSNTKCKEEGSRSN
notes: The result line prints only 'Fas'; also called Pas/Fc chimera; Fc part of the bought chimera not given; not described
For B2, which Kd (FasLigand (monomer)) is on record?
The Kd was 162 nM.
